{
  "source": "patent US20180086804A1",
  "about": "(COMMISSARIAT A L ENERGIE ATOMIQUE ET AUX ENERGIES …, published 2018)",
  "key": {"[1]": {"target": "T1, HLA-DR4 (HLA-DRB1*04:01) (human)", "T1 construct": "mature; purified from homozygous EBV-transformed lymphoblastoid cells with antibody L243", "assay": "competition ELISA vs biotin-HA 306-318;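 note: HLA and competitor incubated 24 to 72 h, maximal signal taken from wells lacking competitor, background from wells lacking HLA molecule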"}, "[2]": {"target": "T2, HLA-DR1 (HLA-DRB1*01:01) (human)", "T2 construct": "mature; class II HLA molecule purified from homozygous EBV-transformed lymphoblastoid cells with antibody L243", "assay": "competition ELISA vs biotin-HA 306-318"}, "[3]": {"target": "T3, HLA-DRB4 (HLA-DRB4*01:01) (human)", "T3 construct": "mature; purified from homozygous EBV-transformed lymphoblastoid cells with antibody L243", "assay": "competition ELISA vs biotin-E2/E168"}, "[4]": {"target": "T4, HLA-DR15 (HLA-DRB1*15:01) (human)", "T4 construct": "mature; purified from homozygous EBV-transformed lymphoblastoid cells with antibody L243", "assay": "competition ELISA vs biotin-A3 152-166"}, "[5]": {"target": "T5, HLA-DR7 (HLA-DRB1*07:01) (human)", "T5 construct": "mature; purified from homozygous EBV-transformed lymphoblastoid cells with antibody L243", "assay": "competition ELISA vs biotin-YKL"}, "[6]": {"target": "T6, HLA-DR11 (HLA-DRB1*11:01) (human)", "T6 construct": "mature; purified from homozygous EBV-transformed lymphoblastoid cells with antibody L243", "assay": "competition ELISA vs biotin-HA 306-318"}, "[7]": {"target": "T7, HLA-DR3 (HLA-DRB1*03:01) (human)", "T7 construct": "mature; purified from homozygous EBV-transformed lymphoblastoid cells with antibody L243", "assay": "competition ELISA vs biotin-MT 2-16"}, "[8]": {"target": "T8, HLA-DP401 (HLA-DPB1*04:01) (human, UniProt P20036 29-222)", "T8 construct": "mature; purified from homozygous EBV-transformed lymphoblastoid cells with antibody B7/21", "assay": "competition ELISA vs biotin-Oxy 271-287"}, "[9]": {"target": "T9, HLA-DP402 (HLA-DPB1*04:02) (human, UniProt P20036 29-222)", "T9 construct": "mature; purified from homozygous EBV-transformed lymphoblastoid cells with antibody B7/21", "assay": "competition ELISA vs biotin-Oxy 271-287"}, "[10]": {"target": "T10, HLA-DR13 (HLA-DRB1*13:01) (human)", "T10 construct": "mature; purified from homozygous EBV-transformed lymphoblastoid cells with antibody L243", "assay": "competition ELISA vs biotin-B1 21-36"}, "[11]": {"target": "T1, HLA-DR4 (HLA-DRB1*04:01)", "assay": "competition ELISA vs biotin-HA 306-318", "remark": "listed apart in the source"}, "[12]": {"target": "T11, HLA-DRB5 (HLA-DRB5*01:01) (human)", "T11 construct": "mature; purified from homozygous EBV-transformed lymphoblastoid cells with antibody L243", "assay": "competition ELISA vs biotin-HA 306-318"}, "[13]": {"target": "T2, HLA-DR1 (HLA-DRB1*01:01)", "assay": "competition ELISA vs biotin-HA 306-318", "remark": "listed apart in the source"}, "[14]": {"target": "T6, HLA-DR11 (HLA-DRB1*11:01)", "assay": "competition ELISA vs biotin-HA 306-318", "remark": "listed apart in the source"}, "[15]": {"target": "T5, HLA-DR7 (HLA-DRB1*07:01)", "assay": "competition ELISA vs biotin-YKL", "remark": "listed apart in the source"}, "[16]": {"target": "T4, HLA-DR15 (HLA-DRB1*15:01)", "assay": "competition ELISA vs biotin-A3 152-166", "remark": "listed apart in the source"}, "[17]": {"target": "T11, HLA-DRB5 (HLA-DRB5*01:01)", "assay": "competition ELISA vs biotin-HA 306-318", "remark": "listed apart in the source"}, "[18]": {"target": "T4, HLA-DR15 (HLA-DRB1*15:01)", "assay": "competition ELISA vs biotin-A3 152-166", "remark": "listed apart in the source"}, "[19]": {"target": "T3, HLA-DRB4 (HLA-DRB4*01:01)", "assay": "competition ELISA vs biotin-E2/E168", "remark": "listed apart in the source"}, "[20]": {"target": "T7, HLA-DR3 (HLA-DRB1*03:01)", "assay": "competition ELISA vs biotin-MT 2-16", "remark": "listed apart in the source"}, "[21]": {"target": "T1, HLA-DR4 (HLA-DRB1*04:01)", "assay": "competition ELISA vs biotin-HA 306-318", "remark": "listed apart in the source"}, "[22]": {"target": "T11, HLA-DRB5 (HLA-DRB5*01:01)", "assay": "competition ELISA vs biotin-HA 306-318", "remark": "listed apart in the source"}, "[23]": {"target": "T2, HLA-DR1 (HLA-DRB1*01:01)", "assay": "competition ELISA vs biotin-HA 306-318", "remark": "listed apart in the source"}, "[24]": {"target": "T6, HLA-DR11 (HLA-DRB1*11:01)", "assay": "competition ELISA vs biotin-HA 306-318", "remark": "listed apart in the source"}, "[25]": {"target": "T5, HLA-DR7 (HLA-DRB1*07:01)", "assay": "competition ELISA vs biotin-YKL", "remark": "listed apart in the source"}, "[26]": {"target": "T12, HLA-DRB3 (HLA-DRB3*01:01) (human)", "T12 construct": "mature; purified from homozygous EBV-transformed lymphoblastoid cells with antibody L243", "assay": "competition ELISA vs biotin-LOL 191-210"}, "[27]": {"target": "T8, HLA-DP401 (HLA-DPB1*04:01)", "assay": "competition ELISA vs biotin-Oxy 271-287", "remark": "listed apart in the source"}, "[28]": {"target": "T9, HLA-DP402 (HLA-DPB1*04:02)", "assay": "competition ELISA vs biotin-Oxy 271-287", "remark": "listed apart in the source"}},
  "note": "Like-named read-outs stand apart in the source and are kept apart here. No end group written: not given here.",
  "data": [
    {"binder": "PMLVPVPVSEPVPEP-NH2", "note": "[CCNB1 87-101]", "values": [
      {"measurement": "relative affinity", "setting": "[1]", "result": 96},
      {"measurement": "relative affinity", "setting": "[2]", "result": 1500},
      {"measurement": "relative affinity", "setting": "[3]", "result": 748},
      {"measurement": "relative affinity", "setting": "[4]", "result": 134},
      {"measurement": "relative affinity", "setting": "[5]", "result": 231}
    ]},
    {"binder": "MELTMLDYDMVHFPP-NH2", "note": "[CCNB1 327-341]", "values": [
      {"measurement": "relative affinity", "setting": "[1]", "result": 22},
      {"measurement": "relative affinity", "setting": "[2]", "result": 418},
      {"measurement": "relative affinity", "setting": "[6]", "result": 216},
      {"measurement": "relative affinity", "setting": "[3]", "result": 139},
      {"measurement": "relative affinity", "setting": "[7]", "result": 32},
      {"measurement": "relative affinity", "setting": "[4]", "result": 10},
      {"measurement": "relative affinity", "setting": "[8]", "result": 2},
      {"measurement": "relative affinity", "setting": "[9]", "result": 47}
    ]},
    {"binder": "MALRVTRNSKINAEN-NH2", "note": "[CCNB1 1-15]", "values": [
      {"measurement": "relative affinity", "setting": "[10]", "result": 58},
      {"measurement": "relative affinity", "setting": "[11]", "result": 46},
      {"measurement": "relative affinity", "setting": "[12]", "result": 374},
      {"measurement": "relative affinity", "setting": "[13]", "result": 100},
      {"measurement": "relative affinity", "setting": "[14]", "result": 22},
      {"measurement": "relative affinity", "setting": "[15]", "result": 2},
      {"measurement": "relative affinity", "setting": "[16]", "result": 5}
    ]},
    {"binder": "KKLPKPLEKVPMLVP-NH2", "note": "[CCNB1 77-91]", "values": [
      {"measurement": "relative affinity", "setting": "[6]", "result": 1630},
      {"measurement": "relative affinity", "setting": "[3]", "result": 75},
      {"measurement": "relative affinity", "setting": "[8]", "result": 212},
      {"measurement": "relative affinity", "setting": "[9]", "result": 474}
    ]},
    {"binder": "LPVMQHLAKNVVMVN-NH2", "note": "[CCNB1 377-391]", "values": [
      {"measurement": "relative affinity", "setting": "[10]", "result": 2},
      {"measurement": "relative affinity", "setting": "[11]", "result": 373},
      {"measurement": "relative affinity", "setting": "[12]", "result": 4080},
      {"measurement": "relative affinity", "setting": "[13]", "result": 894},
      {"measurement": "relative affinity", "setting": "[14]", "result": 3},
      {"measurement": "relative affinity", "setting": "[15]", "result": 13}
    ]},
    {"binder": "SKYEEMYPPEIGDFA-NH2", "note": "[CCNB1 256-270]", "values": [
      {"measurement": "relative affinity", "setting": "[1]", "result": 456},
      {"measurement": "relative affinity", "setting": "[17]", "result": 603},
      {"measurement": "relative affinity", "setting": "[2]", "result": 3},
      {"measurement": "relative affinity", "setting": "[6]", "result": 1370},
      {"measurement": "relative affinity", "setting": "[4]", "result": 153},
      {"measurement": "relative affinity", "setting": "[5]", "result": 61},
      {"measurement": "relative affinity", "setting": "[8]", "result": 894}
    ]},
    {"binder": "MTVSIIDRFMQNNCV-NH2", "note": "[CCNB1 225-239]", "values": [
      {"measurement": "relative affinity", "setting": "[18]", "result": 2},
      {"measurement": "relative affinity", "setting": "[19]", "result": 6},
      {"measurement": "relative affinity", "setting": "[20]", "result": 1},
      {"measurement": "relative affinity", "setting": "[21]", "result": 100},
      {"measurement": "relative affinity", "setting": "[22]", "result": 79},
      {"measurement": "relative affinity", "setting": "[23]", "result": 24},
      {"measurement": "relative affinity", "setting": "[24]", "result": 31},
      {"measurement": "relative affinity", "setting": "[25]", "result": 5},
      {"measurement": "relative affinity", "setting": "[26]", "result": 9},
      {"measurement": "relative affinity", "setting": "[27]", "result": 72},
      {"measurement": "relative affinity", "setting": "[28]", "result": 35}
    ]},
    {"binder": "NCVPKKMLQLVGVTA-NH2", "note": "[CCNB1 237-251]", "values": [
      {"measurement": "relative affinity", "setting": "[2]", "result": 4},
      {"measurement": "relative affinity", "setting": "[6]", "result": 87},
      {"measurement": "relative affinity", "setting": "[3]", "result": 1400},
      {"measurement": "relative affinity", "setting": "[4]", "result": 65}
    ]},
    {"binder": "FRLLQETMYMTVSII-NH2", "note": "[CCNB1 216-230]", "values": [
      {"measurement": "relative affinity", "setting": "[18]", "result": 3},
      {"measurement": "relative affinity", "setting": "[19]", "result": 22},
      {"measurement": "relative affinity", "setting": "[20]", "result": 1},
      {"measurement": "relative affinity", "setting": "[21]", "result": 2},
      {"measurement": "relative affinity", "setting": "[22]", "result": 50},
      {"measurement": "relative affinity", "setting": "[23]", "result": 7},
      {"measurement": "relative affinity", "setting": "[24]", "result": 14},
      {"measurement": "relative affinity", "setting": "[25]", "result": 0.5},
      {"measurement": "relative affinity", "setting": "[26]", "result": 11},
      {"measurement": "relative affinity", "setting": "[27]", "result": 2},
      {"measurement": "relative affinity", "setting": "[28]", "result": 1}
    ]},
    {"binder": "LALKILDNGEWTPTL-NH2", "note": "[CCNB1 351-365]", "values": [
      {"measurement": "relative affinity", "setting": "[1]", "result": 1000},
      {"measurement": "relative affinity", "setting": "[17]", "result": 3060},
      {"measurement": "relative affinity", "setting": "[2]", "result": 648},
      {"measurement": "relative affinity", "setting": "[6]", "result": 2330},
      {"measurement": "relative affinity", "setting": "[4]", "result": 52},
      {"measurement": "relative affinity", "setting": "[5]", "result": 624},
      {"measurement": "relative affinity", "setting": "[9]", "result": 510}
    ]}
  ]
}
